In test [1] the target is T1, cell-surface CD3 epsilon on primary cynomolgus T cells (cynomolgus monkey, UniProt Q95LI5 22-198).
T1 construct: whole, on cells; also called cynomolgus CD3e; Cyno T-cells
Briefly: flow cytometry on primary cynomolgus CD4+ T cells, anti-human IgG Alexa Fluor 647; MFI. The protocol: (§1) The resulting panel of anti-CD3 antibodies was tested for binding against cell-surface CD3ε on primary human T cells. To do this, binding of antibodies from expression supernatants was visualized using a polyclonal anti-human secondary antibody and analyzed by flow cytometry. Briefly, binding of anti-CD3 antibodies to cell-surface CD3ε was assessed by flow cytometry using primary Human T lymphocytes purified by negative selection (Biological Specialty, Colmar, USA). Expression supernatants or purified antibodies were normalized to 10 μg/ml in media or FACS buffer (BD BioSciences), respectively. 2×10⁵ cells were aliquoted into wells of a 96 well round-bottomed plate (CoStar) for labeling. Antibodies in expression supernatant were added to cells and incubated for 45 min at 4° C. Following centrifugation at 1300 rpm for 3 min and removal of supernatant, 50 μL of anti-human IgG (H+L) Alexa Fluor 647 secondary antibody (Life technologies Inc.) was incubated with the cells at a final concentration of 10 μg/mL for 30 min at 4° C. away from direct light. Following washing and resuspension in 30 μL FACs buffer (BD BioSciences). Sample collection was performed on an Intellicyt HTFC system using ForeCyt software. Viable single cells were gated prior to analysis of binding using the green or red fixable live/dead dyes (Life Technologies Inc.) and forward/side scatter area and height parameters, respectively. Graphs were generated in GraphPad Prism version 5 using mean fluorescence intensity values.
Binding analysis of the anti-CD3 hits to primary cynomolgusCD4⁺ T cells was then tested in order to assess the retention of cross-reactivity. Purified CD4⁺ T cells from the peripheral blood of cynomolgus monkeys (Zen Bio, Triangle Research Park, USA were used). Assay protocols were similar to those described above.

For test [2], the target named is T2, cell-surface CD3 epsilon on primary human T cells (human, UniProt P07766 23-207).
T2 construct: whole, on cells; part of the CD3/TCR complex on the cells
Briefly: flow cytometry on primary human T cells, anti-human IgG Alexa Fluor 647; MFI. The protocol:
as §1
In general terms: Flow cytometry measures light scatter and fluorescence of single cells or particles in a stream.

T2 sequence (P07766 23-207): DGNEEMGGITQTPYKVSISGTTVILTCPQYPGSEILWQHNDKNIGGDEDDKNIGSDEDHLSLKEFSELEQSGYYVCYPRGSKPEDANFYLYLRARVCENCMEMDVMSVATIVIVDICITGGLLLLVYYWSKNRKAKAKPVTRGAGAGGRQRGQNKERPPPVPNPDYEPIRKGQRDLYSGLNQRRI
T1 sequence (Q95LI5 22-198): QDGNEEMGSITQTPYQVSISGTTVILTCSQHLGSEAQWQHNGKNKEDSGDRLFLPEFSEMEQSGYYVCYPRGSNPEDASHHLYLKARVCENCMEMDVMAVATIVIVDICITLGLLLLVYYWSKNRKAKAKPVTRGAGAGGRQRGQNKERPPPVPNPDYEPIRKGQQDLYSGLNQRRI

B1: CD3B143 (antibody, IgG1, V domains shown)
VH: EVQLVESGGGLVQPGGSLRLSCAASGFTFNTYAMNWVRQAPGKGLEWVARIRSKYNNYATYYAASVKGRFTISRDDSKNSLYLQMNSLKTEDTAVYYCARHGNFGNSYVSWFAYWGQGTLVTVSS
VL: QAVVTQEPSLTVSPGGTVTLTCRSSTGAVTTSNYANWVQQKPGQAPRGLIGGTNKRAPGTPARFSGSLLGGKAALTLSGAQPEDEAEYYCALWYSNLWVFGGGTKLTVL
notes: IgG1 constant region with L234A, L235A, F405L; human lambda light chain constant region
On to B1, for which the binding result in test [1] and in test [2] was “binds” each time.

B2: CD3B148 (antibody, IgG1, V domains shown)
VH: EVQLLESGGGLVQPGGSLRLSCAASGFTFNTYAMNWVRQAPGKGLEWVARIRSKYNNYATYYADSVKGRFTISRDNSKNTLYLQMNSLRAEDTAVYYCAKHGNFGNSYVSWFAYWGQGTLVTVSS
VL: QSVLTQPPSVSAAPGQKVTISCRSSTGAVTTSNYANWVQQLPGTAPKGLIGGTNKRAPGIPDRFSGSKSGTSATLGITGLQTGDEADYYCALWYSNLWVFGGGTKLTVL
notes: as for B1
Consider B2, for which, in test [1], the binding result was “no binding (tested: not printed)”.

B3: CD3B156 (antibody, IgG1, V domains shown)
VH: EVQLVESGGGLVQPGGSLKLSCAASGFTFNTYAMNWVRQASGKGLEWVGRIRSKYNGYATYYAASVKGRFTISRDDSKNTAYLQMNSLKTEDTAVYYCTRHGNFGNSYVSWFAYWGQGTLVTVSS
VL: QSVLTQPPSVSAAPGQKVTISCRSSTGAVTTSNYANWVQQLPGTAPKGLIGGTNKRAPGIPDRFSGSKSGTSATLGITGLQTGDEADYYCALWYSNLWVFGGGTKLTVL
notes: as for B1
With B3, the binding result in test [1] and in test [2] was “binds” throughout.

B4: CD3B155 (antibody, IgG1, V domains shown)
VH: EVQLVESGGGLVQPGGSLKLSCAASGFTFNTYAMNWVRQASGKGLEWVGRIRSKYNGYATYYAASVKGRFTISRDDSKNTAYLQMNSLKTEDTAVYYCTRHGNFGNSYVSWFAYWGQGTLVTVSS
VL: QAVVTQEPSLTVSPGGTVTLTCRSSTGAVTTSNYANWVQQKPGQAPRGLIGGTNKRAPGTPARFSGSLLGGKAALTLSGAQPEDEAEYYCALWYSNLWVFGGGTKLTVL
notes: as for B1
In the case of B4, the binding result in test [1] and in test [2] was “binds” each time.

B5: CD3B158 (antibody, IgG1, V domains shown)
VH: EVQLVESGGGLVQPGGSLKLSCAASGFTFNTYAMNWVRQASGKGLEWVGRIRSKYNGYATYYAASVKGRFTISRDDSKNTAYLQMNSLKTEDTAVYYCTRHGNFGNSYVSWFAYWGQGTLVTVSS
VL: QTVVTQEPSLTVSPGGTVTLTCRSSTGAVTTSNYANWVQQKPGQAPRGLIGGTNKRAPGTPARFSGSLLGGKAALTLSGVQPEDEAEYYCALWYSNLWVFGGGTKLTVL
notes: as for B1
Turning to B5, the binding result in test [1] and in test [2] was “binds” throughout.

B6: CD3B152 (antibody, IgG1, V domains shown)
VH: EVQLLESGGGLVQPGGSLRLSCAASGFTFNTYAMNWVRQAPGKGLEWVARIRSKYNNYATYYADSVKGRFTISRDNSKNTLYLQMNSLRAEDTAVYYCVKHGNFGNSYVSWFAYWGQGTLVTVSS
VL: QSVLTQPPSVSAAPGQKVTISCRSSTGAVTTSNYANWVQQLPGTAPKGLIGGTNKRAPGIPDRFSGSKSGTSATLGITGLQTGDEADYYCALWYSNLWVFGGGTKLTVL
notes: as for B1
For B6, the binding result is recorded as “no binding (tested: not printed)” in test [1] and “no binding” in test [2].

B7: CD3B151 (antibody, IgG1, V domains shown)
VH: EVQLLESGGGLVQPGGSLRLSCAASGFTFNTYAMNWVRQAPGKGLEWVARIRSKYNNYATYYADSVKGRFTISRDNSKNTLYLQMNSLRAEDTAVYYCVKHGNFGNSYVSWFAYWGQGTLVTVSS
VL: QAVVTQEPSLTVSPGGTVTLTCRSSTGAVTTSNYANWVQQKPGQAPRGLIGGTNKRAPGTPARFSGSLLGGKAALTLSGAQPEDEAEYYCALWYSNLWVFGGGTKLTVL
notes: as for B1
On to B7, for which the binding result in test [1] and in test [2] was “binds” throughout.

B8: CD3B154 (antibody, IgG1, V domains shown)
VH: EVQLLESGGGLVQPGGSLRLSCAASGFTFNTYAMNWVRQAPGKGLEWVARIRSKYNNYATYYADSVKGRFTISRDNSKNTLYLQMNSLRAEDTAVYYCVKHGNFGNSYVSWFAYWGQGTLVTVSS
VL: QTVVTQEPSLTVSPGGTVTLTCRSSTGAVTTSNYANWVQQKPGQAPRGLIGGTNKRAPGTPARFSGSLLGGKAALTLSGVQPEDEAEYYCALWYSNLWVFGGGTKLTVL
notes: as for B1
Take B8: the binding result in test [1] and in test [2] was “binds” in each case.

B9: CD3B124 (antibody, human IgG1, V domains shown)
VH: EVKLLESGGGLVQPKGSLKLSCAASGFTFNTYAMNWVRQAPGKGLEWVARIRSKYNNYATYYADSVKDRFTISRDDSQSILYLQMNNLKTEDTAMYYCVRHGNFGNSYVSWFAYWGQGTLVTVSA
VL: QAVVTQESALTTSPGETVTLTCRSSTGAVTTSNYANWVQEKPDHLFTGLIGGTNKRAPGVPARFSGSLIGDKAALTITGAQTEDEAIYFCALWYSNLWVFGGGTKLTVL
notes: Chimeric: VH and VL of SP34 with murine framework and a human IgG1 Fc; also called in-house chimeric SP34-derived antibody
As for B9, in test [1], the binding result is listed as “binds”.

Values taken from patent US20160068605A1 (Janssen / Centocor, published 2016).
